Earlier results as cited in PMC11386291.

Assays:
[1] = target: MKK6 D-motif D-motif (Homo sapiens) (UniProt P52564)
[2] = target: MKK4 D-motif D-motif (Homo sapiens) (UniProt P45985)

Kd [1] | Kd [2] | Substance
7.5 µM | – | p38α (from UniProt Q16539)
– | 3.5 µM | JNK1 (from UniProt P45983)
